Test results as given in the supplement of paper PMC10567573.
± gives the standard deviation.

Assay: protein stability index of a GFP-peptide fusion (GPS, HEK-293T) (PSI 1-6); higher = more stable
[1] = treatment: DMSO, c terminus: a fixed tail appended
[2] = treatment: MLN4924 1 uM, 8 h, c terminus: a fixed tail appended
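Note: 24-mer peptide tiles fused after GFP, lentivirally expressed, FACS-sorted into six equal bins by GFP/DsRed ratio, decoded by Illumina sequencing, PSI is the read-weighted mean bin number.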

MDRFDCQYLMATFVHVYITSFIRG [CDS1]
protein stability index [1]: 3.01 ± 0.56
protein stability index [2]: 3.67 ± 0.73

MDRRSRAQQWRRARHNYNDLCPPI [GNAS]
protein stability index [1]: 2.92 ± 0.19
protein stability index [2]: 3.13 ± 0.3

MEAADASRSNGSSPEARDARSPSG [TRIM29]
protein stability index [1]: 5.29 ± 0.18
protein stability index [2]: 5.5 ± 0.091

MEALDLQPGLSFLNLGSGTGYLSS [PCMTD2]
protein stability index [1]: 3.4 ± 0.36
protein stability index [2]: 3.45 ± 0.4

MGERKGVNKYYPPDFNPEKHGSLN [YJU2B]
protein stability index [1]: 4.11 ± 0.4
protein stability index [2]: 4.18 ± 0.12

MGSASPGLSSVSPSHLLLPPDTVS [SPDEF]
protein stability index [1]: 4.28 ± 0.27
protein stability index [2]: 4.2 ± 0.23

MINLRRLLLSHIHASSYISPEKEE [PRAME]
protein stability index [1]: 2.41 ± 0.26
protein stability index [2]: 2.63 ± 0.57

MKKGGIFSAEFLKVFIPSLFLSHV [BNIP3L]
protein stability index [1]: 3 ± 1.1
protein stability index [2]: 2.51 ± 0.56

MLPGRTDNAVKNHWNSTIKRKVDT [MYBL2]
protein stability index [1]: 3.61 ± 0.17
protein stability index [2]: 4.09 ± 0.24

MLQRAIAYQHSGHLESKDINQEEL [C10orf62]
protein stability index [1]: 3.96 ± 0.19
protein stability index [2]: 4.14 ± 0.24

MMDSRTSQQLQLIDEQDSYIQSRA [STX5]
protein stability index [1]: 4.77 ± 0.15
protein stability index [2]: 4.74 ± 0.076

MNLELLESFGQNYPEEADGTLDCI [RBBP5]
protein stability index [1]: 4.77 ± 0.25
protein stability index [2]: 4.89 ± 0.12

MNNAVRNLQELLELDSSSSLCVLV [CEP70]
protein stability index [1]: 2.36 ± 0.29
protein stability index [2]: 2.32 ± 0.19

MPAAGLAVQLRHAWNPEDRSLNVF [SPSB4]
protein stability index [1]: 2.75 ± 0.14
protein stability index [2]: 2.95 ± 0.26

MPATPSLKVVHELPACTLCAGPLE [TRIM15]
protein stability index [1]: 3.95 ± 0.28
protein stability index [2]: 4.03 ± 0.2

MSCRDRTQEFLSACKSLQTRQNGI [STX5]
protein stability index [1]: 3.1 ± 0.21
protein stability index [2]: 3.1 ± 0.36

MSEADGLRQRRPLRPQVVTDDDGQ [APMAP]
protein stability index [1]: 5.36 ± 0.28
protein stability index [2]: 5.37 ± 0.33

MSKLLKRQNDILQVVSQGWKYFKG [CD207]
protein stability index [1]: 2.28 ± 0.36
protein stability index [2]: 2.28 ± 0.082

MSLEPQNGTYAGPAPAFQPFFFTG [ANKRD40]
protein stability index [1]: 2.29 ± 0.35
protein stability index [2]: 2.15 ± 0.31

MSTKESDFLCLLGVSYTFDNEDSE [MIA2]
protein stability index [1]: 2.92 ± 0.14
protein stability index [2]: 2.91 ± 0.29

MTSLTQRSSGLVQRRTEASRNAAD [GOLPH3]
protein stability index [1]: 4.89 ± 0.27
protein stability index [2]: 5.03 ± 0.19

MTVKPAKAASLARNLAKRRRTYLG [RSPH3]
protein stability index [1]: 3.16 ± 0.3
protein stability index [2]: 3.6 ± 0.3

MVGGGQPCGPNMSEVSCKKRDDYL [DCTD]
protein stability index [1]: 4.11 ± 0.33
protein stability index [2]: 4.21 ± 0.19

MWKFVSPLCMAVLTTASIIQLGVT [SLC6A17]
protein stability index [1]: 3.21 ± 0.58
protein stability index [2]: 2.87 ± 0.49

MYKLSSEQFHEAASKMESTIKPRR [CHCHD6]
protein stability index [1]: 3.72 ± 0.53
protein stability index [2]: 4.07 ± 0.64

MYRWKLSSHEPCSATCTTGVMSAY [ADAMTSL2]
protein stability index [1]: 2.24 ± 0.74
protein stability index [2]: 2.2 ± 0.73

NALSKSSAPPITPECRQVLKTSRK [CHGB]
protein stability index [1]: 4.68 ± 0.22
protein stability index [2]: 4.77 ± 0.15

NCRLQSPYFSPSASFHHKLHHKRL [CBY2]
protein stability index [1]: 2.32 ± 0.24
protein stability index [2]: 2.33 ± 0.16

NEDPLVLLAWRCTKLSLLAIHGYT [FBXO33]
protein stability index [1]: 3.05 ± 0.33
protein stability index [2]: 2.91 ± 0.65

NEKEKALQAQVQYQQQHEQQKKDL [SASS6]
protein stability index [1]: 5.66 ± 0.2
protein stability index [2]: 5.48 ± 0.5

NESKGTRESWDSAKKLPPVQESQS [ELOA2]
protein stability index [1]: 5.41 ± 0.096
protein stability index [2]: 5.1 ± 0.4

NETQPIDLSGLPLQSSKNSYSFQN [RNF180]
protein stability index [1]: 3.95 ± 0.22
protein stability index [2]: 3.89 ± 0.18

NFIGRQWEISDDYPSLQAMGWFNN [CRYBA1]
protein stability index [1]: 2.45 ± 0.18
protein stability index [2]: 2.32 ± 0.18

NFLFRNAASTLTERPCYNRRASKL [ANKRD40]
protein stability index [1]: 3.19 ± 0.28
protein stability index [2]: 3.4 ± 0.12

NFSAAKSLLNKKADGVKPQTNSTK [CAMK2B]
protein stability index [1]: 4.98 ± 0.22
protein stability index [2]: 4.85 ± 0.34

NFSNYYVAHPPVTYSQPYPTWLPC [TENT5C]
protein stability index [1]: 2.46 ± 0.5
protein stability index [2]: 2.17 ± 0.098

NFSVDRWERKEGGGGISCVLQDGC [CPOX]
protein stability index [1]: 3.8 ± 0.2
protein stability index [2]: 3.8 ± 0.33

NHFVWRLIPVPMATQIQQLLQDKQ [VPS39]
protein stability index [1]: 2.3 ± 0.44
protein stability index [2]: 2.16 ± 0.31

NIGINGNHSLETCETTLFALRMAT [PTGFR]
protein stability index [1]: 2.34 ± 0.21
protein stability index [2]: 2.33 ± 0.34

NITDETPDNCEMFLNFNGMKLFLD [ZER1]
protein stability index [1]: 3.62 ± 0.18
protein stability index [2]: 3.65 ± 0.46

NKISRFQAPISAPEYTYGISNIDT [MFF]
protein stability index [1]: 3.42 ± 0.28
protein stability index [2]: 3.56 ± 0.45

NKTPGAPESSALQPPPQSSEGLVG [WAS]
protein stability index [1]: 5.41 ± 0.35
protein stability index [2]: 5.3 ± 0.31

NLAQDPQCKEWQVLMCGFPFLLLF [TMEM120A]
protein stability index [1]: 2.5 ± 0.61
protein stability index [2]: 2.35 ± 0.61

NLLPAAGELQESGLALCPEVQDLL [SMG5]
protein stability index [1]: 4.26 ± 0.21
protein stability index [2]: 4.31 ± 0.13

NLVARHPLFSEDVVLKLFLSFSGS [SNX8]
protein stability index [1]: 2.7 ± 0.58
protein stability index [2]: 2.33 ± 0.2

NMNDNFLEGEEENELTLNEKNFFP [CHGB]
protein stability index [1]: 4.71 ± 0.16
protein stability index [2]: 4.81 ± 0.14

NNVVPIHVPPTTENKPKVQCCQNI [RAB11A]
protein stability index [1]: 4.56 ± 0.15
protein stability index [2]: 4.57 ± 0.21

NPPKASAAPDCTPSLEAGNPAPAA [MYCL]
protein stability index [1]: 5.34 ± 0.19
protein stability index [2]: 5.34 ± 0.23

NQMKERQGLFFDMEAYLPKKNGLY [TMEM120A]
protein stability index [1]: 2.65 ± 0.077
protein stability index [2]: 2.73 ± 0.15

NQNSWGTGEDVKVILKNSQGEEVA [LMNB1]
protein stability index [1]: 4.99 ± 0.22
protein stability index [2]: 4.85 ± 0.13

NRKRECGNAHYQRADFVLAANSYD [FKBP8]
protein stability index [1]: 3.33 ± 0.35
protein stability index [2]: 3.68 ± 0.29

NRPIETYQVHDYLRSKLCSLYEND [PPP2R2B]
protein stability index [1]: 2.97 ± 0.084
protein stability index [2]: 3.22 ± 0.16

NSAAATSPKGTLPPAALESSDSAN [CAMK2B]
protein stability index [1]: 5.39 ± 0.096
protein stability index [2]: 5.37 ± 0.21

NSALKDKEDQFGRTPLMYCVLADR [INVS]
protein stability index [1]: 3.37 ± 0.4
protein stability index [2]: 3.23 ± 0.37

NSLLEEETILHFFVQILLALHHVH [NEK8]
protein stability index [1]: 2.38 ± 0.11
protein stability index [2]: 2.33 ± 0.35

NTEIEKLGRSIVSSPQGKSGPEAA [PKD2L1]
protein stability index [1]: 5.35 ± 0.22
protein stability index [2]: 5.34 ± 0.15

NTIAFRHLFLLGYSDGADDTFAAY [MCOLN1]
protein stability index [1]: 2.46 ± 0.66
protein stability index [2]: 2.33 ± 0.12

NTLKRENSSPRVMQRKQSLGKPDQ [DLC1]
protein stability index [1]: 4.85 ± 0.24
protein stability index [2]: 4.83 ± 0.38

NVINHFYCDLPQLFQLSCSSTQLN [OR3A1]
protein stability index [1]: 3 ± 0.66
protein stability index [2]: 2.84 ± 0.34

NWEAPPGAFDSFLLRFGVPSPSTL [TNXB]
protein stability index [1]: 3.06 ± 0.37
protein stability index [2]: 2.85 ± 0.28

NYTNPLKVQTVIILGKVILWILHL [TMEM192]
protein stability index [1]: 2.08 ± 0.19
protein stability index [2]: 2.15 ± 0.24

PANVDASVMFRKWRDSKGKDKEYA [UBE2R2]
protein stability index [1]: 4.09 ± 0.27
protein stability index [2]: 3.95 ± 0.24

PAPATQMPSTPGFVGYNPYSHLAY [SMARCE1]
protein stability index [1]: 2.37 ± 0.21
protein stability index [2]: 2.44 ± 0.27

PAQRITLAEALLHPFFAGLTPEER [CLK3]
protein stability index [1]: 3 ± 0.28
protein stability index [2]: 3.13 ± 0.27

PAVDLNQVLNETRNQYEALVETNR [KRT33B]
protein stability index [1]: 3.39 ± 0.36
protein stability index [2]: 3.87 ± 0.74

PCWKITLFVIVPVLGPLVALIICY [MOG]
protein stability index [1]: 2.87 ± 0.98
protein stability index [2]: 2.88 ± 1.2

PDNEQLMEEVISPRQVSYTPQHHE [IQUB]
protein stability index [1]: 5.16 ± 0.4
protein stability index [2]: 5.32 ± 0.19

PDTELKRYFGARAILGEQRPRQRQ [TCF25]
protein stability index [1]: 4.25 ± 0.11
protein stability index [2]: 4.11 ± 0.18

PEDGRIFAQRTFDYELLQMLQIVV [PCDHGC5]
protein stability index [1]: 2.19 ± 0.4
protein stability index [2]: 2.3 ± 0.36

PEDLAQLEELIDMAVLEEIQQELI [RPAIN]
protein stability index [1]: 2.54 ± 0.14
protein stability index [2]: 2.89 ± 0.41

PEDRPSLDDIIRHDFFLQGFTPDR [PLK2]
protein stability index [1]: 4.35 ± 0.12
protein stability index [2]: 4.27 ± 0.29

PESDILQPVPNTTEPDYKSKDWVF [STK38L]
protein stability index [1]: 4.45 ± 0.32
protein stability index [2]: 4.55 ± 0.19

PESSALQPPPQSSEGLVGALMHVM [WAS]
protein stability index [1]: 3.77 ± 0.17
protein stability index [2]: 3.58 ± 0.56

PETEAVSSSQEIPTMPQPIEKVSV [ZMYND11]
protein stability index [1]: 5.24 ± 0.33
protein stability index [2]: 5.36 ± 0.26

PETQLFWDKEPWFWHDTLTEQLWR [TLE6]
protein stability index [1]: 2.7 ± 0.57
protein stability index [2]: 2.27 ± 0.36

PFETREPPPAYEPPAPAPLPPPSA [SCAMP3]
protein stability index [1]: 4.99 ± 0.22
protein stability index [2]: 5.08 ± 0.41

PFHEMFVSRGGHGQQDLFRVLKAY [TBC1D10A]
protein stability index [1]: 2.25 ± 0.18
protein stability index [2]: 2.42 ± 0.085

PFLFFGHFWQLFNALTLFNLAQDP [TMEM120A]
protein stability index [1]: 3.35 ± 0.086
protein stability index [2]: 3.08 ± 0.13

PFYTSRIDEVLLHQDVDLVCINLP [GFOD1]
protein stability index [1]: 2.08 ± 0.18
protein stability index [2]: 2.21 ± 0.35

PGDMLLQVNEINFENMSNDDAVRV [DVL3]
protein stability index [1]: 4.4 ± 0.35
protein stability index [2]: 4.37 ± 0.21

PGETRRNSYPRADTGLFSRSKSGS [TRIM29]
protein stability index [1]: 4.73 ± 0.18
protein stability index [2]: 5.01 ± 0.47

PGFYATYESTLFEDQVPALEAPED [MIA2]
protein stability index [1]: 5.18 ± 0.27
protein stability index [2]: 4.92 ± 0.36

PGPGGTMKRHSSRDAAGKPQRPRS [FCHO1]
protein stability index [1]: 5.04 ± 0.16
protein stability index [2]: 5.12 ± 0.17

PGSASLAQSRLEDPGQDLVPKQAI [DLX1]
protein stability index [1]: 4.83 ± 0.48
protein stability index [2]: 5 ± 0.34

PIRCGEVLFAVGGWCSGDAISSVE [KLHL20]
protein stability index [1]: 2.22 ± 0.42
protein stability index [2]: 2.34 ± 0.41

PIRSISLRSCYFSDPDCSMRPTLI [FBXO39]
protein stability index [1]: 2.13 ± 0.36
protein stability index [2]: 2.07 ± 0.27

PKAQPQTWKSGKQTMLSHYRPFYV [TRIM29]
protein stability index [1]: 2.57 ± 0.17
protein stability index [2]: 2.06 ± 0.39

PKKIMPEAHSHYLYGHMLSAFRD [PPFIA4]
protein stability index (treatment: DMSO, c terminus: native): 2.35 ± 0.23
protein stability index (treatment: MLN4924 1 uM, 8 h, c terminus: native): 2.77 ± 0.35

PKNGRHAWIWHDCHRHYHSMEVFT [LOXL2]
protein stability index [1]: 2.28 ± 0.24
protein stability index [2]: 2.4 ± 0.17
